# What was measured:
# [1] = target: A244 Δ11 gp120 (HIV-1); assay: SPR; 17b flowed over A244gD- d11 (batch 110608) held on immobilised A32 (A32-triggered Env)
# [2] = target: A244 Δ11 gp120 (HIV-1); assay: SPR; 17b flowed over A244gD- d11 (batch 110608) held on immobilised sCD4 (sCD4-triggered Env)
# [3] = target: A244 Δ11 gp120 (HIV-1); assay: SPR; 17b flowed over A244gD- d11 (batch 110608) held on immobilised T8 (T8-triggered Env); response axis in RU
# [4] = target: A244 Δ11 gp120 (HIV-1); assay: SPR; 17b flowed over A244gD- d11 (batch 110608) held on immobilised A32 (A32-triggered Env); response axis in RU
# [5] = target: A244 Δ11 gp120 (HIV-1); assay: SPR; 17b flowed over A244gD- d11 (batch 110608) held on immobilised sCD4 (sCD4-triggered Env); response axis in RU
# [6] = target: A244 Δ11 gp120 (HIV-1); assay: SPR; A244 gp120 gD- Δ11 293T monomer batch 110608 flowed over immobilised T8; ratio to ConS gp140
# [7] = target: A244 Δ11 gp120 (HIV-1); assay: SPR; A244 gp120 gD- Δ11 293T monomer batch 110608 flowed over immobilised T8; response axis in RU
# [8] = target: A244 gDΔ11 gp120 (Herpes simplex virus; HIV-1); assay: SPR
# [9] = target: A244 Δ11 gp120 (HIV-1); assay: SPR
# [10] = target: A244 gDΔ11 gp120 (Herpes simplex virus; HIV-1); assay: SPR, mAb captured on anti-Fc surface, monomeric gp120 as analyte
# [11] = target: A244 gp120 (no modifications) (HIV-1); assay: as above
# [12] = target: A244 Δ11 gp120 (HIV-1); assay: as above
# [13] = target: MN gDΔ11 gp120 (Herpes simplex virus; HIV-1); assay: Kd table; row B.MN gp120, column CH01 gD+; method not given
# [14] = target: MN gp120 (no modifications) (HIV-1); assay: Kd table; row B.MN gp120, column CH01 gD-; method not given
# [15] = target: A244 gDΔ11 gp120 (Herpes simplex virus; HIV-1); assay: Kd table; row AE.A244 gp120, column CH01 gD+; method not given
# [16] = target: A244 gp120 (no modifications) (HIV-1); assay: Kd table; row AE.A244 gp120, column CH01 gD-; method not given
# [17] = target: A244 gp120 (no modifications) (HIV-1); assay: SPR titration, binding to CH01 mAb; A244 gDneg at [10] to [100], unit inferred
# [18] = target: A244 Δ11 gp120 (HIV-1); assay: SPR titration, binding to CH01 mAb; A244 gDneg D11 at [10] to [100], unit inferred
# [19] = target: A244 gDΔ11 gp120 (Herpes simplex virus; HIV-1); assay: SPR titration, binding to CH01 mAb; A244 gD+ 293Tmon at [5] to [100], unit inferred
# [20] = target: A244 gp120 (no modifications) (HIV-1); assay: SPR titration, binding to CH01 mAb; A244 gDneg at [10], [25], [50], [75], [100], unit inferred
# [21] = target: A244 Δ11 gp120 (HIV-1); assay: SPR titration, binding to CH01 mAb; A244 gDneg D11 at [10], [25], [50], [75], [100], unit inferred
# [22] = target: A244 gDΔ11 gp120 (Herpes simplex virus; HIV-1); assay: SPR titration, binding to CH01 mAb; A244 gD+ 293Tmon at [5], [10], [25], [50], [100], unit inferred
# [23] = target: A244 Δ11 gp120 (HIV-1); assay: SPR blocking on immobilized A244 Δ11 gp120, mAb injected to near saturation, then RV144 vaccinee IgG; against 7B2 control
# [24] = target: A244 gDΔ11 gp120 (Herpes simplex virus; HIV-1); assay: SPR titration, binding to CH01 mAb; A244 gD+ 293Tmon at [5] to [100], unit inferred; footnote: '* Fit deviation, need to lower Ag density'
# [25] = target: A244 gp120 (no modifications) (HIV-1); assay: SPR titration, binding to CH01 mAb; A244 gDneg at [10] to [100], unit inferred; the sheet prints a slash where a decimal point is meant (kd/ka as printed gives 3.1 µM)
# [26] = target: MN gDΔ11 gp120 (Herpes simplex virus; HIV-1); assay: Kd table; row B.MN gp120, column PG9 gD+; method not given
# [27] = target: MN gp120 (no modifications) (HIV-1); assay: Kd table; row B.MN gp120, column PG9 gD-; method not given
# [28] = target: A244 gDΔ11 gp120 (Herpes simplex virus; HIV-1); assay: Kd table; row AE.A244 gp120, column PG9 gD+; method not given
# [29] = target: A244 gp120 (no modifications) (HIV-1); assay: Kd table; row AE.A244 gp120, column PG9 gD-; method not given
# [30] = target: 92TH023 gDΔ11 gp120 (Herpes simplex virus; HIV-1); assay: Kd table; row AE.92TH023 gp120, column PG9 gD+; method not given
# [31] = target: A244 Δ11 gp120 (HIV-1); assay: SPR titration, binding to PG9 mAb (IAVI PG9); A244 gDneg D11 at [10] to [100], unit inferred
# [32] = target: A244 gDΔ11 gp120 (Herpes simplex virus; HIV-1); assay: SPR titration, binding to PG9 mAb (IAVI PG9); A244 gD+293Tmon at [10] to [40], unit inferred
# [33] = target: A244 gDΔ11 gp120 (Herpes simplex virus; HIV-1); assay: SPR titration, binding to PG9 mAb (IAVI PG9); A244 gD+293Tmon at [10], [20], [30], [40], unit inferred
# [34] = target: A244 Δ11 gp120 (HIV-1); assay: SPR titration, binding to PG9 mAb (IAVI PG9); A244 gDneg D11 at [10], [25], [50], [75], [100], unit inferred
# [35] = target: MN-rgp120 (RV144 vaccine immunogen) (Herpes simplex virus; HIV-1); assay: SPR, mAb captured on anti-Fc surface, gp120 as analyte (FIG. 28)
# [36] = target: MN-rgp120 (RV144 vaccine immunogen) (Herpes simplex virus; HIV-1); assay: SPR; 19b captured on anti-Fc surface, RV144 MN-rgp120 injected at 0.5-5 µg/mL; fitted curves
# [37] = target: A244-rgp120 (RV144 vaccine immunogen) (Herpes simplex virus; HIV-1); assay: SPR; 19b captured on anti-Fc surface, RV144 A244-rgp120 injected at 0.5-5 µg/mL; fitted curves [lower row]
# [38] = target: A244 gp120 (no modifications) (HIV-1); assay: SPR titration, binding to CH03 mAb; A244 gDneg at [10] to [100], unit inferred
# [39] = target: A244 Δ11 gp120 (HIV-1); assay: SPR titration, binding to CH03 mAb; A244 gDneg D11 at [10] to [100], unit inferred
# [40] = target: A244 Δ11 gp120 (HIV-1); assay: SPR titration, binding to CH03 mAb; A244 gDneg D11 at [10], [25], [50], [75], [100], unit inferred
substance,measurement,setting,value
CCR5 receptor gp120 binding site mAb 17b (antibody),17b binding ratio,[1],0.327
same,17b binding ratio,[2],0.316
same,Req,[3],-169
same,Req,[4],529
same,Req,[5],166
T8 (C1 mAb) (antibody),Relative Binding Env/ConS gp140,[6],2.88
same,Req,[7],1250
V2 mAb 830A (antibody),fold more avid than to unmodified A244 gp120,[8],5 fold
same,fold more avid than to unmodified A244 gp120,[9],5 fold
same,Kd,[10],1.7 nM
same,koff,[10],7e-05 s⁻¹
same,kon,[10],41100 M⁻¹ s⁻¹
same,Kd,[11],10.2 nM
same,koff,[11],0.00022 s⁻¹
same,kon,[11],21800 M⁻¹ s⁻¹
same,Kd,[12],1.56 nM
same,koff,[12],8.8e-05 s⁻¹
same,kon,[12],59900 M⁻¹ s⁻¹
V2V3 bnAb CH01 (antibody),fold faster association rate than with unmodified gp120,[8],10 fold
same,fold higher affinity than for unmodified A244 gp120,[8],5 fold
same,fold faster association rate than with unmodified gp120,[9],10 fold
same,fold higher affinity than for unmodified A244 gp120,[9],5 fold
same,Kd,[10],278 nM
same,koff,[10],0.0099 s⁻¹
same,kon,[10],37200 M⁻¹ s⁻¹
same,Kd,[11],1640 nM
same,koff,[11],0.00438 s⁻¹
same,kon,[11],3730 M⁻¹ s⁻¹
same,Kd,[12],317 nM
same,koff,[12],0.0156 s⁻¹
same,kon,[12],49000 M⁻¹ s⁻¹
same,Kd,[13],288 nM
same,Kd,[14],457 nM
same,Kd,[15],200 nM
same,Kd,[16],2100 nM
same,koff,[17],0.00237 s⁻¹
same,Kd,[18],430 nM
same,koff,[18],0.0135 s⁻¹
same,koff,[19],0.0028 s⁻¹
same,kon,[20],760 M⁻¹ s⁻¹
same,kon,[21],31100 M⁻¹ s⁻¹
same,kon,[22],9800 M⁻¹ s⁻¹
same,percent blocking of RV144 vaccinee IgG binding,[23],24.6%
same,Kd,[24],290 nM
same,Kd,[25],3100 nM
V2V3 bnAb PG9 (antibody),fold higher affinity than for unmodified A244 gp120,[8],3 fold
same,fold higher affinity than for unmodified A244 gp120,[9],3 fold
same,Kd,[10],48.1 nM
same,koff,[10],0.00055 s⁻¹
same,kon,[10],11500 M⁻¹ s⁻¹
same,Kd,[11],183 nM
same,koff,[11],0.0011 s⁻¹
same,kon,[11],5000 M⁻¹ s⁻¹
same,Kd,[12],52.6 nM
same,koff,[12],0.00057 s⁻¹
same,kon,[12],10900 M⁻¹ s⁻¹
same,Kd,[26],542 nM
same,Kd,[27],347 nM
same,Kd,[28],128 nM
same,Kd,[29],1100 nM
same,Kd,[30],212 nM
same,Kd,[31],88.7 nM
same,koff,[31],0.00102 s⁻¹
same,Kd,[32],62.7 nM
same,koff,[32],0.00105 s⁻¹
same,kon,[33],16800 M⁻¹ s⁻¹
same,kon,[34],11500 M⁻¹ s⁻¹
V3 mAb 19b (antibody),Kd,[10],8.24 nM
same,koff,[10],0.0014 s⁻¹
same,kon,[10],170000 M⁻¹ s⁻¹
same,Kd,[11],11.8 nM
same,koff,[11],0.00154 s⁻¹
same,kon,[11],130000 M⁻¹ s⁻¹
same,Kd,[12],6.54 nM
same,koff,[12],0.00156 s⁻¹
same,kon,[12],239000 M⁻¹ s⁻¹
same,fold lower Kd than for A244-rgp120,[35],5 fold
same,Kd,[36],3.4 nM
same,Kd,[37],15.3 nM
VRC01 (CD4 bs mAb) (antibody),Kd,[10],15.8 nM
same,koff,[10],0.00021 s⁻¹
same,kon,[10],13300 M⁻¹ s⁻¹
same,Kd,[11],15.7 nM
same,koff,[11],0.00028 s⁻¹
same,kon,[11],17600 M⁻¹ s⁻¹
same,Kd,[12],36.7 nM
same,koff,[12],0.00039 s⁻¹
same,kon,[12],9700 M⁻¹ s⁻¹
"mAb CH03 (V2,V3 conformational) (antibody)",Kd,[38],5500 nM
same,koff,[38],0.0055 s⁻¹
same,Kd,[39],620 nM
same,koff,[39],0.0167 s⁻¹
same,kon,[40],27000 M⁻¹ s⁻¹

# Source: US10040826
